The record followed here is patent publication US7419813B2, “Fructosyl peptide oxidase” (Kikkoman Corporation, priority 2001, dated 2008).

Type in all cases: biochemical
Data set [1] is described as follows: Enzyme activity assay, fructosyl glycine substrate. The note with it: for Substrate specificity (% relative activity) FG: crude enzyme sample; for relative activity for fructosyl glycine: purified oxidase, compared to 100% activity for fructosyl valyl histidine. The text has this:
Enzyme activities of the oxidase of the invention and the oxidase of the invention that have less action on ε-fructosyl lysine (hereinafter, the term “the oxidases of the invention” may comprise both the oxidase of the invention and the oxidase of the invention that have less action on ε-fructosyl lysine) may principally be determined by determining the amount of α-ketoaldehyde, peptide, hydrogen peroxide or the like which are produced through enzyme reaction or by determining the amount of oxygen consumed by the enzyme reaction. Hereinafter, a method for determining the amount of hydrogen peroxide will be described as one example. Unless otherwise noted, fructosyl valyl histidine is used as a substrate for determining the activities of the oxidases of the invention. Titer of the enzyme is defined such that an amount of enzyme for producing 1 μmol hydrogen peroxide per minute is 1U as determined using a fructosyl valyl histidine substrate. 624 mg of fructosyl valyl histidine is dissolved in ion exchange water to a constant volume of 10 ml. Alternatively, fructosyl glycine or ε-fructosyl lysine of 357 mg or 462 mg, respectively, may be dissolved in ion exchange water to a constant volume of 10 ml to be used as a substrate. Fructosyl valine histidine was prepared as described in Japanese Patent Application Laid-Open (kohyo) No. 2001-95598. Fructosyl glycine and ε-fructosyl lysine were prepared according to a method of Horiuchi et al. (Agric. Biol. Chem., 53, 103-110, 1989; Agric. Biol. Chem., 55, 333-338, 1991). 2.7 ml of Reagent 1, 100 μl of Reagent 2 and 100 μl of enzyme solution are mixed and pre-heated at 30° C. for 5 minutes. Then, 100 μl of Reagent 3 is added and thoroughly mixed to determine absorbance at 510 nm using a spectrophotometer (U-[…], Hitachi, Ltd.). Measurement values indicate changes in the absorbance per minute at 510 nm after 1 to 3 minutes. A control solution was prepared in the same manner as described above except 100 μl ion exchange water was added instead of 100 μl Reagent 3. A standard solution of hydrogen peroxide and ion exchange water were used instead of Reagent 3 and the enzyme solution, respectively, to prepare a graph showing relationship with respect to the level of color. Referring to this graph, micromole of hydrogen peroxide produced per minute at 30° C. is calculated and used as the unit for expressing the activity of the enzyme solution. The presence of action on ε-fructosyl lysine can be determined in the same manner by using Reagent 3 (substrate solution) containing ε-fructosyl lysine substrate instead of fructosyl valyl histidine substrate.

Data set [2] in a line: Reaction assay in 96-well plate with fructosyl glycine (control substrate). The note with it: purified enzyme; control substrate set to 100%. As to the method: Fructosyl glycine (4.5 mg) was dissolved in 1 ml of water.
(§1) Developer solution consisted of the following materials:
• (a) Enzyme purified from Achaetomiella virescens ATCC 32393 • (b) Enzyme purified from Eupenicillium terrenum ATCC 18547 • (c) Enzyme purified from Coniochaeta sp. NISL 9330 (FERM BP-7798) • (d) 20 mM phosphate buffer, pH 8.0 (2) Reaction Assay
Reaction substrate (D: a, b) (20 μl), developer solution (E) (20 μl) and the inventive oxidase (F: a-d) (10 μl) were mixed in 96-well assay plates for reaction. Each plate was monitored at 510 nm using a plate reader (Immuno Mini NJ-2300, available from Nalge Nunc International K. K.) for 70 minutes. The results are shown as % relative activity when compared to 100% activity for fructosyl glycine (Table 4). […] It was confirmed that all of the inventive oxidases were reactive with the protease-digested products of α-glycated hexapeptide.

A short description of data set [3]: Optimum temperature range of the enzyme reaction. The settings on record: purified oxidase. As to the method: For example, a reaction solution having the same composition as that of a reaction solution used for the activity assay described later is used to determine activities of the enzyme at various temperatures, thereby determining a suitable temperature range for action. The oxidases of the invention may, for example, have a suitable temperature range of 20-50° C., preferably 25-45° C. For example, a reaction solution having the same composition as that of a reaction solution for the activity assay described later is used to determine activities of the enzyme at various temperatures, thereby determining a suitable temperature range. The oxidases of the invention that have less action on ε-fructosyl lysine may, for example, have a suitable temperature range of 20-50° C., preferably 25-40° C. The activity of the inventive oxidase was assayed at different temperatures using reactions which consisted of the same compositions as those used in the above-described activity assay.

Data set [4] is described as follows: Reaction with products obtained by digesting α-glycated hexapeptide with protease (96-well plate, 510 nm). The settings on record: purified enzyme; compared to 100% activity for fructosyl glycine; monitored at 510 nm for 70 minutes.
Source text: Glycated hemoglobin (HbA1c) may be treated with endoproteinase Glu-C to liberate α-glycated hexapeptide (fructosyl Val-His-Leu-Thr-Pro-Glu) from the glycated hemoglobin β-chain (Clin. Chem., 43; 10 1944-1951, 1997). Fructosyl Val-His-Leu-Thr-Pro-Glu (available from PEPTIDE INSTITUTE, INC), which is the same substance as the α-glycated hexapeptide, was used in the following experiment.
α-glycated hexapeptide (fructosyl Val-His-Leu-Thr-Pro-Glu, MW=856, available from PEPTIDE INSTITUTE, INC) (3.434 mg) was dissolved in 0.2 ml of water.
Molsin (15 mg, available from Kikkoman Corp.) was dissolved in 0.2 ml of buffer (10 mM acetate buffer, pH 3.0)
A (100 μl), B (5 μl) and C (5 μl) were mixed in a microtube and incubated at 37° C. for 17 hours. The reaction solution was then filtered using Microcon 10 (available from Amicon) to remove protease.
as §1
• (a) Enzyme purified from Achaetomiella virescens ATCC 32393 • (b) Enzyme purified from Eupenicillium terrenum ATCC 18547 • (c) Enzyme purified from Coniochaeta sp. […]
Reaction substrate (D: a, b) (20 μl), developer solution (E) (20 μl) and the inventive oxidase (F: a-d) (10 μl) were mixed in 96-well assay plates for reaction. Each plate was monitored at 510 nm using a plate reader (Immuno Mini NJ-2300, available from Nalge Nunc International K. K.) for 70 minutes. […]

Where [5] appears, read: relative to activity for ε-fructosyl lysine (100%).

B1: Eupenicillium terrenum ATCC 18547: fructosyl peptide oxidase produced by Eupenicillium terrenum ATCC 18547 with less action on ε-fructosyl lysine; amino acid sequence SEQ ID NO: 3 (protein, listed as Eupenicillium terrenum)
chain: MAHSRASTKVVVVGGGGTIGSSTALHLIRSGYTPSNITVLDVYKTPSLQSAGHDLNKIMGIRLRNGPDLQLSLESLDMWQNDELFKPFFHQVGMIDCSSSKEGIENLRRKYQTLLDAGIGLEKTNVWLESEDEILAKAPNFTREQVKGWKGLFCTDGGWLAAAKAINAIGIFLQDKGVKFGFGGAGTFQQPLFAADGKTCIGLETTDGTKYFADKVVLAAGAWSPTLVDLEDQCVSKAWVFAHIQLTPKEADAYKNVPVVYDGEYGFFFEPNEYGVIKVCDEFPGFSRFKLHQPYGAASPKMISVPRSHAKHPTDTYPDASEVTIRKAIARFLPEFKDKELFNRTMCWCTDTADANLLICEHPKWKNFILATGDSGHSFKLLPNIGKHVVELLEGSLSQEMAGAWRWRPGGDALRSRRGAPAKDLAEMPGWKHDAHL
Regarding B1, the figures for the “Substrate specificity (% relative activity) FG” value in data set [1] (relative to activity for fructosyl valyl histidine (100%)) and in data set [1] (setting [5]) were 182% and 1862%, respectively. Moreover, the “relative activity for fructosyl glycine” value in data set [1] is 182%. The “% relative activity on fructosyl glycine” value in data set [2] is on record as 100%. In addition, the “temperature of maximum activity (100%)” value in data set [3] is “around 35 °C”. The optimum temperature range in data set [3] (relative activities of 50% or 60% or higher) was 25-40 °C. The “% relative activity on protease-digested α-glycated hexapeptide” value in data set [4] stood at 9.5%.

B2: Coniochaeta sp. NISL 9330: fructosyl peptide oxidase produced by Coniochaeta sp. NISL 9330 (FERM BP-7798) with less action on ε-fructosyl lysine; amino acid sequence SEQ ID NO: 1 (protein, listed as Coniochaeta sp.)
chain: MTSNRADTRVIVVGGGGTIGSSTALHLVRSGYAPANITVLDTFEIPSAQSAGHDLNKIMGIRLRNKVDLQMSLEARQMWKEDELFQPFFHNTGRMDCEHTPEGIEDLKKQYQALHDAGAGLEKTHAWLDNEDEILSKMPLLQRDQIQGWKAIWSQDGGWLAAAKAINAIGQFLKERGVKFGFGGAGSFKQPLFDDEGTTCIGVETADGTKYYADKVVLAAGAWSPTLVDLEDQCCSKAWVYAHIQLTPEEAAEYKGVPVVYNGEFGFFFEPNEFGVIKVCDEFPGFSRFKEHQPYGAPSPKHISVPRSHAKHPTDTYPDASEVSIKKAIATFLPRFQDKELFNRALCWCTDTADAALLMCEHPKWKNFILATGDSGHSFKILPNVGKHVVELIEGRLPEEMAYQWRWRPGGDALKSRRAAPPKDLADMPGWKHDPKL
B2: the “Substrate specificity (% relative activity) FG” value in data set [1] (setting [5]) stood at 65%. For the same molecule, the “relative activity for fructosyl glycine” value in data set [1] is recorded as 39%. Moreover, the “% relative activity on fructosyl glycine” value in data set [2] turned out to be 100%. Also, in data set [3], the “temperature of maximum activity (100%)” value was “around 40 °C”. The “% relative activity on protease-digested α-glycated hexapeptide” value in data set [4] amounted to 10.0%.
